System: CC[C@H](C)[C@H](NC(=O)[C@H](CCCNC(=N)N)NC(=O)CNC(=O)[C@@H](N)CO)C(=O)NCC(=O)N[C@@H](Cc1ccccc1)C(=O)N[C@@H](CC(C)C)C(=O)N[C@@H](CCCNC(=N)N)C(=O)N[C@H](C(=O)N[C@@H](C)C(=O)O)[C@@H](C)O
Test: Ratio of kcat/km for human recombinant MMP14 assessed as drug cleavage

“Matrix metalloproteinase-14 (Homo sapiens) (from UniProt P50281)” gave a kcat/Km of 777000 M⁻¹ s⁻¹.

Source: ChEMBL document CHEMBL1140886, “Development of an optimized activatable MMP-14 targeted SPECT imaging probe” (Bioorg Med Chem, 2009)
